Source: paper doi:10.1101/2024.12.20.629533

Molecular target: VgrS (residues 81-729), Salmonella Typhimurium VgrG (Salmonella enterica serovar Typhimurium)
Test: crystal structure

Substance “VgrS (residues 81-729), Salmonella Typhimurium VgrG (domain or fragment)” has a stoichiometry N of 3.
